Assay results taken from US20230060388A1 (SHANGHAI HENLIUS BIOTECH, published 2023).

Columns and labels:
[1] = target: T1, human TIGIT expressed on cells (stably transfected Jurkat cells) (human, UniProt Q495A1 22-244); experiment: cell-based or functional assay
T1 sequence: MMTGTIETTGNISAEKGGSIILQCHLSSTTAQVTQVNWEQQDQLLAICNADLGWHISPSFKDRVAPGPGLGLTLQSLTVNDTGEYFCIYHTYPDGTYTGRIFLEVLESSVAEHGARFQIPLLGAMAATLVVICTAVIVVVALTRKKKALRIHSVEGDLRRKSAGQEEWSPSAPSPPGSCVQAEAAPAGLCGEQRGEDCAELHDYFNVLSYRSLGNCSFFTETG

[2] = target: T1, human TIGIT expressed on cells (stably …); experiment: TIGIT WCB: whole cell binding, flow cytometry, h-TIGIT Jurkat cells; mean
Protocol: Affinity to TIGIT was further examined in whole cell binding assay using human TIGIT transfected Jurkat cells. Antibodies were incubated with h-TIGIT transfected Jurkat cells, and binding of antibodies to h-TIGIT was determined using a secondary anti-human-IgG Fc antibody conjugated with AlexaFluor488, which was detected by flow cytometry.

[3] = target: T1, human TIGIT expressed on cells (stably …); experiment: flow cytometry (whole cell binding) on h-TIGIT transfected Jurkat cells; table under the graph, Average (n=3), SD 0.37
[4] = target: T1, human TIGIT expressed on cells (stably …); experiment: flow cytometry (whole cell binding) on h-TIGIT transfected Jurkat cells; table under the graph, Average (n=3), SD 1.61
[5] = target: T1, human TIGIT expressed on cells (stably …); experiment: flow cytometry (whole cell binding) on h-TIGIT transfected Jurkat cells; table under the graph, Average (n=3), SD 0.35
[6] = target: T1, human TIGIT expressed on cells (stably …); experiment: flow cytometry (whole cell binding) on h-TIGIT transfected Jurkat cells; table under the graph, Average (n=3), SD 71.12
[7] = target: T2, human PD1 expressed on transfected Jurkat cells (human, UniProt Q15116 25-288); experiment: cell-based or functional assay
[8] = target: T2, human PD1 expressed on transfected …; experiment: PD1 WCB: whole cell binding, flow cytometry, h-PD1 Jurkat cells; mean
Protocol: The binding affinities of the BsAbs to human PD1 were also determined by whole cell binding assays using human PD1 transfected Jurkat cells. Antibodies were incubated with h-PD1 transfected Jurkat cells, and binding was determined using a secondary anti-h-IgG antibody conjugated with AlexaFluor488, which was detected by flow cytometry.

[9] = target: T3, his-tagged recombinant human TIGIT ECD (human, UniProt Q495A1 22-138); experiment: Octet, antibody loaded on the sensor, his-tagged h-PD1 ECD injected first, his-tagged h-TIGIT ECD second
T3 construct: also called h-TIGIT ECD (his-tagged); not shown: his tag
T3 sequence: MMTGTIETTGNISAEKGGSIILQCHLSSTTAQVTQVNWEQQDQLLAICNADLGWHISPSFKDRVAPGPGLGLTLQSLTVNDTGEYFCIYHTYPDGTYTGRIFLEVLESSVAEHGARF

[10] = target: T2, human PD1 expressed on transfected …; experiment: flow cytometry (whole cell binding) on h-PD1 transfected Jurkat cells; table under the graph, Average (n=4), SD 0.18
[11] = target: T4, recombinant mouse TIGIT (mouse, UniProt P86176 29-148, limits assumed); experiment: ELISA, recombinant mouse-TIGIT
T4 sequence (looked up): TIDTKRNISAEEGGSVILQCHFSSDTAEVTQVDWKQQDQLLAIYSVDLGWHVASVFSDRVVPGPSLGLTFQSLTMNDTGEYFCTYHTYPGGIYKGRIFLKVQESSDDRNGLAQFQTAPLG

[12] = target: T1, human TIGIT expressed on cells (stably …); experiment: cell-based or functional assay; remark: listed apart in the source
[13] = target: T5, recombinant cynomolgus TIGIT (cynomolgus monkey); experiment: ELISA on recombinant cyno-TIGIT
T5 construct: also called cyno-TIGIT; cyno-TIGIT ECD
Protocol: (§1) FIGS. 8A-8C depict cross-binding activity of 2A3-Fc to human-, cyno- and mouse-TIGIT determined by ELISA assays. […] Reference Ab 2 is an anti-h-TIGIT reference antibody. Both 2A3-Fc and Reference Ab 2 bind to h-TIGIT with similar affinity. […] Both 2A3-Fc and Reference Ab 2 bind to cyno-TIGIT with similar affinity. […] Y axis represents OD450, X axis represents antibody concentrations in μg/ml.
(§2) Cross-species binding activity of 2A3-Fc to human, cynomolgus and mouse TIGIT was determined by ELISA assays, results of which are shown in FIGS. 8A-8C. 2A3-Fc bound to human, cynomolgus monkey but not mouse TIGIT.

[14] = target: T6, recombinant human TIGIT extracellular domain (ECD) (human, UniProt Q495A1 22-138); experiment: ELISA on recombinant human TIGIT ECD
T6 construct: also called h-TIGIT ECD; recombinant human TIGIT ECD
T6 sequence: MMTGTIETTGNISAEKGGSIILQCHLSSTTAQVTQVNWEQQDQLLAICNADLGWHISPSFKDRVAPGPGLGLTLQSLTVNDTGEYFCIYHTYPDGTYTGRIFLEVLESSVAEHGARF
Protocol: as §1, §2

[15] = target: T1, human TIGIT expressed on cells (stably …); experiment: flow cytometry on h-TIGIT transfected Jurkat cells (whole cell binding), Alexa Fluor 488 [upper panel]

T2 sequence (Q15116 25-288): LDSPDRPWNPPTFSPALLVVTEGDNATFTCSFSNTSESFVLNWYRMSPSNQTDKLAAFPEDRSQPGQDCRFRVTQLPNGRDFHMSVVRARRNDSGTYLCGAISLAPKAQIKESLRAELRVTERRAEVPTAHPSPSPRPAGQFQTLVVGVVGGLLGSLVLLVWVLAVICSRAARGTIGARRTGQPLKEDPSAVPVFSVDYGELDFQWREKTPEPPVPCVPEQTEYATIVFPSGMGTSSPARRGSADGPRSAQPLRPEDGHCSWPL

B1: anti-TIGIT x anti-PD1 bispecific antibody, HCN version (bispecific antibody, human IgG4 S228P, kappa)
heavy: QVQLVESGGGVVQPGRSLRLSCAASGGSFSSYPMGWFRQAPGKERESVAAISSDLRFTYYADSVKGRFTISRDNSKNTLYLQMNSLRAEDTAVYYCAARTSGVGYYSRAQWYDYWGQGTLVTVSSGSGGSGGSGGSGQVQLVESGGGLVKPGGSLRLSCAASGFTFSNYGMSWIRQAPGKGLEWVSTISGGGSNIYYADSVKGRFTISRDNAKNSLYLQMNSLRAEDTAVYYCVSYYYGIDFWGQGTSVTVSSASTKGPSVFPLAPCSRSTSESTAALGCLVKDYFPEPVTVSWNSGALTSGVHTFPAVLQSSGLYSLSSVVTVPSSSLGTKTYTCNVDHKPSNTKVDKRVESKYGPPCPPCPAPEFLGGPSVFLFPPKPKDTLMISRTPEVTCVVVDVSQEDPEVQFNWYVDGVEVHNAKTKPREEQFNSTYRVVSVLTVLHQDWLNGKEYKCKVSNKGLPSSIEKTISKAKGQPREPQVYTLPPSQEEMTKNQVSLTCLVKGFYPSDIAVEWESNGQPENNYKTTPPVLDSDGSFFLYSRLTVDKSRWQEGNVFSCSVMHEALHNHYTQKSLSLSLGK
light: DIQMTQSPSSLSASVGDRVTITCKASQDVTTAVAWYQQKPGKAPKLLIYWASTRHTGVPSRFSGSGSGTDFTLTISSLQPEDFATYYCQQHYTIPWTFGGGTKLEIKRTVAAPSVFIFPPSDEQLKSGTASVVCLLNNFYPREAKVQWKVDNALQSGNSQESVTEQDSKDSTYSLSSTLTLSKADYEKHKVYACEVTHQGLSSPVTKSFNRGEC
notes: VHH 2A3 fused to the N-terminus of the anti-PD1 heavy chain; also called aTIGITxaPD1-HCN; BsAb HCN
For B1, which “EC50 (Mean, nM), PD1 + TIGIT Combination Blockade Assay (double blockade)” value (from here on “EC50 (Mean, nM) … (double blockade)”) [1] is on record?
Its value is 1.15 nM.

What about the “EC50 (Mean, nM), TIGIT Blockade Assay” value [1] of the same binder?
Its value is 2.7 nM.

And the EC50 [2]?
Its EC50 is 0.81 nM.

And the EC50 [3]?
Its EC50 is 0.55 nM.

B2: anti-TIGIT x anti-PD1 bispecific antibody, HCC version (bispecific antibody, human IgG4 S228P, kappa)
heavy: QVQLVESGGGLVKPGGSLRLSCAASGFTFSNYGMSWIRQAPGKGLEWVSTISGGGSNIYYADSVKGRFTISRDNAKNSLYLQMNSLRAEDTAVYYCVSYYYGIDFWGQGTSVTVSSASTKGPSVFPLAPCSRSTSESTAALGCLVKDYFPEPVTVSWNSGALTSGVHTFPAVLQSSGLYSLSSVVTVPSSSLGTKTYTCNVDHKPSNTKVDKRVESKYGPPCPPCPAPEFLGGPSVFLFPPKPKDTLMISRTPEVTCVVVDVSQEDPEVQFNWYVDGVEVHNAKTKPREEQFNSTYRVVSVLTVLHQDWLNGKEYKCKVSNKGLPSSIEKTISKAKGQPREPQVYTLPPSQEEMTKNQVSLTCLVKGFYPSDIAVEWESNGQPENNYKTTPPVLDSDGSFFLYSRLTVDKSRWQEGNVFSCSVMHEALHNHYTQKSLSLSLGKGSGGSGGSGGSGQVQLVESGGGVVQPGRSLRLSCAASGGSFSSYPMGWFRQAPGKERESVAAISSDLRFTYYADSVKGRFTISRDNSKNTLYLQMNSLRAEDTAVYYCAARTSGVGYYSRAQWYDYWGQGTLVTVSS
light: DIQMTQSPSSLSASVGDRVTITCKASQDVTTAVAWYQQKPGKAPKLLIYWASTRHTGVPSRFSGSGSGTDFTLTISSLQPEDFATYYCQQHYTIPWTFGGGTKLEIKRTVAAPSVFIFPPSDEQLKSGTASVVCLLNNFYPREAKVQWKVDNALQSGNSQESVTEQDSKDSTYSLSSTLTLSKADYEKHKVYACEVTHQGLSSPVTKSFNRGEC
notes: VHH 2A3 fused to the C-terminus of the anti-PD1 heavy chain; also called aTIGITxaPD1-HCC
How did the “EC50 (Mean, nM) … (double blockade)” value [1] turn out when B2 was run?
The value was 2.61 nM.

What about the “EC50 (Mean, nM), TIGIT Blockade Assay” value [1] of the same binder?
Its value is 25.9 nM.

And the EC50 [2]?
The EC50 was 4.93 nM.

And the EC50 [4]?
Its EC50 is 4.2 nM.

B3: anti-TIGIT x anti-PD1 bispecific antibody, LCN version (bispecific antibody, human IgG4 S228P, kappa)
heavy: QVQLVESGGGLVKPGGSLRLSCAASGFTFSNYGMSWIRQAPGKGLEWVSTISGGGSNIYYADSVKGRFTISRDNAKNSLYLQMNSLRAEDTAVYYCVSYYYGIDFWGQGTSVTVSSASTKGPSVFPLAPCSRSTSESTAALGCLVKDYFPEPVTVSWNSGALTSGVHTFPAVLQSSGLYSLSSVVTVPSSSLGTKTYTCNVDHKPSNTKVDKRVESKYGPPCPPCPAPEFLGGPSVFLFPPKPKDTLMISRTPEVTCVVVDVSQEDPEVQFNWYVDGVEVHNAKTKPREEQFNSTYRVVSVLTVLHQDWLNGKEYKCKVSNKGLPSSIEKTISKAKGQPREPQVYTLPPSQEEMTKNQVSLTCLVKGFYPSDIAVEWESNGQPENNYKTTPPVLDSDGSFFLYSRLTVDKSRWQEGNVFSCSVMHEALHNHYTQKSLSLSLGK
light: QVQLVESGGGVVQPGRSLRLSCAASGGSFSSYPMGWFRQAPGKERESVAAISSDLRFTYYADSVKGRFTISRDNSKNTLYLQMNSLRAEDTAVYYCAARTSGVGYYSRAQWYDYWGQGTLVTVSSGSGGSGGSGGSGDIQMTQSPSSLSASVGDRVTITCKASQDVTTAVAWYQQKPGKAPKLLIYWASTRHTGVPSRFSGSGSGTDFTLTISSLQPEDFATYYCQQHYTIPWTFGGGTKLEIKRTVAAPSVFIFPPSDEQLKSGTASVVCLLNNFYPREAKVQWKVDNALQSGNSQESVTEQDSKDSTYSLSSTLTLSKADYEKHKVYACEVTHQGLSSPVTKSFNRGEC
notes: VHH 2A3 fused to the N-terminus of the anti-PD1 light chain; also called aTIGITxaPD1-LCN
Which results are given for B3?
EC50 (Mean, nM), PD1 + TIGIT Combination Blockade Assay (double blockade) [1]: 1.23 nM; EC50 (Mean, nM), TIGIT Blockade Assay [1]: 8.7 nM; EC50 [2]: 0.75 nM; EC50 [5]: 0.61 nM

B4: anti-TIGIT x anti-PD1 bispecific antibody, LCC version (bispecific antibody, human IgG4 S228P, kappa)
heavy: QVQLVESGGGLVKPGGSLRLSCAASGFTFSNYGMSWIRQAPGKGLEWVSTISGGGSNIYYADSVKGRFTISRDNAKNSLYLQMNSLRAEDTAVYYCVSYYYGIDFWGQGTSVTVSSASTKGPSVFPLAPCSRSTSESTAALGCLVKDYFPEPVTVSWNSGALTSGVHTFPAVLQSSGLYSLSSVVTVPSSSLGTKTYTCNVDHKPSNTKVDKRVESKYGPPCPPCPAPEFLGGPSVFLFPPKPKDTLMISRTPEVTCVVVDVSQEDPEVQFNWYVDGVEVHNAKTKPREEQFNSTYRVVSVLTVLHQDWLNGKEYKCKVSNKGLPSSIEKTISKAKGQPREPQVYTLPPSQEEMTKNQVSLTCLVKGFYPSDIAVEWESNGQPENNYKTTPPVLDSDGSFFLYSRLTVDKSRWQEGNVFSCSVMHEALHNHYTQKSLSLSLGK
light: DIQMTQSPSSLSASVGDRVTITCKASQDVTTAVAWYQQKPGKAPKLLIYWASTRHTGVPSRFSGSGSGTDFTLTISSLQPEDFATYYCQQHYTIPWTFGGGTKLEIKRTVAAPSVFIFPPSDEQLKSGTASVVCLLNNFYPREAKVQWKVDNALQSGNSQESVTEQDSKDSTYSLSSTLTLSKADYEKHKVYACEVTHQGLSSPVTKSFNRGECGSGGSGGSGGSGQVQLVESGGGVVQPGRSLRLSCAASGGSFSSYPMGWFRQAPGKERESVAAISSDLRFTYYADSVKGRFTISRDNSKNTLYLQMNSLRAEDTAVYYCAARTSGVGYYSRAQWYDYWGQGTLVTVSS
notes: VHH 2A3 fused to the C-terminus of the anti-PD1 light chain; also called aTIGITxaPD1-LCC; aTIGITxaPDI-LCC
B4 was tested. Which “EC50 (Mean, nM) … (double blockade)” value [1] did it give?
The value was 0.48 nM.

And the “EC50 (Mean, nM), TIGIT Blockade Assay” value [1]?
Its value is 10.3 nM.

And the EC50 [2]?
The EC50 was 192 nM.

What about the EC50 [6] of the same binder?
Its EC50 is 155 nM.

B5: parental anti-PD1 monoclonal antibody (antibody, human IgG4 S228P, kappa, V domains shown)
VH: QVQLVESGGGLVKPGGSLRLSCAASGFTFSNYGMSWIRQAPGKGLEWVSTISGGGSNIYYADSVKGRFTISRDNAKNSLYLQMNSLRAEDTAVYYCVSYYYGIDFWGQGTSVTVSS
VL: DIQMTQSPSSLSASVGDRVTITCKASQDVTTAVAWYQQKPGKAPKLLIYWASTRHTGVPSRFSGSGSGTDFTLTISSLQPEDFATYYCQQHYTIPWTFGGGTKLEIKR
notes: Antibody from WO 2018/052818 A1; also called aPD1; parental mAb anti-PD1
B5 was tested. Which “EC50 (Mean, nM), PD1 Blockade Assay” value [7] did it give?
The value was 0.73 nM.

And the EC50 [8]?
Its EC50 is 0.6 nM.

Does B5 bind [9]?
Result: no binding (tested: concentrations not printed)

And the EC50 [10]?
The EC50 was 0.36 nM.

B6: 2A3-Fc (bivalent 2A3 antibody) (Fc fusion)
chain: QVQLVESGGGVVQPGRSLRLSCAASGGSFSSYPMGWFRQAPGKERESVAAISSDMRFTYYADSVKGRFTISRDNSKNTLYLQMNSLRAEDTAVYYCAARDSGVGYYSRAQWYDYWGQGTLVTVSS
notes: also called parental 2A3-Fc; 2A3 clone; not shown: human IgG1 CH2 and CH3 domains
Does B6 bind [11]?
Result: no binding

What about the “EC50 (read off the curve) of the NFAT luciferase reporter activity, TIGIT blockade assay [lower panel]” value [12] of the same binder?
Its value is about 1 nM.

And the “EC50 (read off the curve)” value [13]?
The value was about 0.1 µg/mL.

And the “EC50 (read off the curve)” value [14]?
The value was about 0.1 µg/mL.

What about the “EC50 (read off the curve)” value [15] of the same binder?
The value was about 0.5 nM.
